± gives the standard deviation of the averaged measurements.
Experiment: total protein half-life in vivo (active degradation + dilution); higher = more stable protein
[1] = E. coli NCM3722 delta-clpP delta-lon delta-hslV, growth: N-lim chemostat, doubling time 6 h
[2] = E. coli NCM3722 delta-clpP, growth: N-lim chemostat, doubling time 6 h
[3] = E. coli NCM3722 delta-lon, growth: N-lim chemostat, doubling time 6 h
[4] = E. coli NCM3722 delta-smpB, growth: N-lim chemostat, doubling time 6 h
[5] = wild type E. coli NCM3722, growth: C-lim chemostat, doubling time 3 h
[6] = wild type E. coli NCM3722, growth: N-lim chemostat, doubling time 12 h
[7] = wild type E. coli NCM3722, growth: P-lim chemostat, doubling time 6 h
[8] = wild type E. coli NCM3722, growth: P-lim chemostat, doubling time 12 h
[9] = E. coli NCM3722 delta-hslV, growth: N-lim chemostat, doubling time 6 h
[10] = wild type E. coli NCM3722, growth: C-lim chemostat, doubling time 6 h
[11] = wild type E. coli NCM3722, growth: C-lim chemostat, doubling time 12 h
[12] = wild type E. coli NCM3722, growth: N-lim chemostat, doubling time 6 h

Row | Sequence | total protein half-life in vivo [1] | total protein half-life in vivo [2] | total protein half-life in vivo [3] | total protein half-life in vivo [4] | total protein half-life in vivo [5] | total protein half-life in vivo [6] | total protein half-life in vivo [7] | total protein half-life in vivo [8] | total protein half-life in vivo [9] | total protein half-life in vivo [10] | total protein half-life in vivo [11] | total protein half-life in vivo [12]
1 | MNTTTPMGMLQQPRPFFMIFFVELWERFGYYGVQGVLAVFFVKQLGFSQEQAFVTFGAFAALVYGLISIGGYVGDHLLGTKRTIVLGALVLAIGYFMTGMSLLKPDLIFIALGTIAVGNGLFKANPASLLSKCYPPKDPRLDGAFTLFYMSINIGSLIALSLAPVIADRFGYSVTYNLCGAGLIIALLVYIACRGMVKDIGSEPDFRPMSFSKLLYVLLGSVVMIFVCAWLMHNVEVANLVLIVLSIVVTIIFFRQAFKLDKTGRNKMFVAFVLMLEAVVFYILYAQMPTSLNFFAINNVHHEILGFSINPVSFQALNPFWVVLASPILAGIYTHLGNKGKDLSMPMKFTLGMFMCSLGFLTAAAAGMWFADAQGLTSPWFIVLVYLFQSLGELFISALGLAMIAALVPQHLMGFILGMWFLTQAAAFLLGGYVATFTAVPDNITDPLETLPVYTNVFGKIGLVTLGVAVVMLLMVPWLKRMIATPESH | 6.66 ± 0.32 h | 6.8 ± 0.1 h | 5.78 ± 0.79 h | > 8 h | > 4 h | 6.12 h | 6.47 h | 11.1 ± 1.4 h | – | – | – | –
2 | MTARYIAIDWGSTNLRAWLYQGDHCLESRQSEAGVTRLNGKSPAAVLAEVTTDWREEKTPVVMAGMVGSNVGWKVAPYLSVPACFSSIGEQLTSVGDNIWIIPGLCVSHDDNHNVMRGEETQLIGARALAPSSLYVMPGTHCKWVQADSQQINDFRTVMTGELHHLLLNHSLIGAGLPPQENSADAFTAGLERGLNTPAILPQLFEVRASHVLGTLPREQVSEFLSGLLIGAEVASMRDYVAHQHAITLVAGTSLTARYQQAFQAMGCDVTAVAGDTAFQAGIRSIAHAVAN | – | – | – | – | 3.12 ± 0.4 h | – | 4.75 h | 7.85 h | – | – | – | –
3 | MMNPLIIKLGGVLLDSEEALERLFSALVNYRESHQRPLVIVHGGGCVVDELMKGLNLPVKKKNGLRVTPADQIDIITGALAGTANKTLLAWAKKHQIAAVGLFLGDGDSVKVTQLDEELGHVGLAQPGSPKLINSLLENGYLPVVSSIGVTDEGQLMNVNADQAATALAATLGADLILLSDVSGILDGKGQRIAEMTAAKAEQLIEQGIITDGMIVKVNAALDAARTLGRPVDIASWRHAEQLPALFNGMPMGTRILA [P0A6C8] | 4.97 ± 0.82 h | 3.77 ± 0.19 h | 4.45 ± 0.17 h | 3.02 ± 0.15 h | 2.84 ± 0.045 h | 4.813 ± 0.046 h | 4.58 ± 0.39 h | 7.92 ± 0.16 h | 3.36 ± 0.25 h | 5.19 ± 0.41 h | 10.3 ± 3.4 h | 3.404 ± 0.033 h
4 | MIGSLTARIFAIFWLTLALVLMLVLMLPKLDSRQMTELLDSEQRQGLMIEQHVEAELANDPPNDLMWWRRLFRAIDKWAPPGQRLLLVTTEGRVIGAERSEMQIIRNFIGQADNADHPQKKKYGRVELVGPFSVRDGEDNYQLYLIRPASSSQSDFINLLFDRPLLLLIVTMLVSTPLLLWLAWSLAKPARKLKNAADEVAQGNLRQHPELEAGPQEFLAAGASFNQMVTALERMMTSQQRLLSDISHELRTPLTRLQLGTALLRRRSGESKELERIETEAQRLDSMINDLLVMSRNQQKNALVSETIKANQLWSEVLDNAAFEAEQMGKSLTVNFPPGPWPLYGNPNALESALENIVRNALRYSHTKIEVGFAVDKDGITITVDDDGPGVSPEDREQIFRPFYRTDEARDRESGGTGLGLAIVETAIQQHRGWVKAEDSPLGGLRLVIWLPLYKRS [P0AE82] | 6.5 ± 0.57 h | 6.88 ± 0.076 h | 5.674 ± 0.024 h | 5.86 ± 0.35 h | 2.971 ± 0.0099 h | 12.8 ± 0.79 h | 5.98 ± 0.15 h | 11.8 ± 0.38 h | – | 5.92 ± 0.31 h | 9.91 ± 1.8 h | 6.07 ± 0.074 h
5 | MNTVRSEKDSMGAIDVPADKLWGAQTQRSLEHFRISTEKMPTSLIHALALTKRAAAKVNEDLGLLSEEKASAIRQAADEVLAGQHDDEFPLAIWQTGSGTQSNMNMNEVLANRASELLGGVRGMERKVHPNDDVNKSQSSNDVFPTAMHVAALLALRKQLIPQLKTLTQTLNEKSRAFADIVKIGRTHLQDATPLTLGQEISGWVAMLEHNLKHIEYSLPHVAELALGGTAVGTGLNTHPEYARRVADELAVITCAPFVTAPNKFEALATCDALVQAHGALKGLAASLMKIANDVRWLASGPRCGIGEISIPENEPGSSIMPGKVNPTQCEALTMLCCQVMGNDVAINMGGASGNFELNVFRPMVIHNFLQSVRLLADGMESFNKHCAVGIEPNRERINQLLNESLMLVTALNTHIGYDKAAEIAKKAHKEGLTLKAAALALGYLSEAEFDSWVRPEQMVGSMKAGR | 4.65 ± 0.1 h | 4.64 ± 0.49 h | 4.69 ± 0.13 h | 4.11 ± 0.091 h | 3.18 ± 0.23 h | 7.19 ± 0.16 h | 5.82 ± 0.21 h | 12.6 ± 0.33 h | 4.42 ± 0.081 h | 5.9 ± 0.12 h | 9.94 ± 0.14 h | 4.59 ± 0.14 h
6 | MKPSVILYKALPDDLLQRLQEHFTVHQVANLSPQTVEQNAAIFAEAEGLLGSNENVNAALLEKMPKLRATSTISVGYDNFDVDALTARKILLMHTPTVLTETVADTLMALVLSTARRVVEVAERVKAGEWTASIGPDWYGTDVHHKTLGIVGMGRIGMALAQRAHFGFNMPILYNARRHHKEAEERFNARYCDLDTLLQESDFVCLILPLTDETHHLFGAEQFAKMKSSAIFINAGRGPVVDENALIAALQKGEIHAAGLDVFEQEPLSVDSPLLSMANVVAVPHIGSATHETRYGMAACAVDNLIDALQGKVEKNCVNPHVAD | 4.9 ± 1.3 h | 4.12 ± 0.17 h | 5.02 ± 0.68 h | 3.89 ± 0.12 h | 2.95 ± 0.11 h | 6.22 ± 0.18 h | 5.53 ± 0.1 h | 11.1 ± 0.45 h | 3.82 ± 0.29 h | 5.5 ± 0.48 h | 8.92 ± 0.31 h | 4.03 ± 0.16 h
7 | MGQLIDGVWHDTWYDTKSTGGKFQRSASAFRNWLTADGAPGPTGTGGFIAEKDRYHLYVSLACPWAHRTLIMRKLKGLEPFISVSVVNPLMLENGWTFDDSFPGATGDTLYQNEFLYQLYLHADPHYSGRVTVPVLWDKKNHTIVSNESAEIIRMFNTAFDALGAKAGDYYPPALQTKIDELNGWIYDTVNNGVYKAGFATSQEAYDEAVAKVFESLARLEQILGQHRYLTGNQLTEADIRLWTTLVRFDPVYVTHFKCDKHRISDYLNLYGFLRDIYQMPGIAETVNFDHIRNHYFRSHKTINPTGIISIGPWQDLDEPHGRDVRFG | 6.05 ± 0.31 h | 4.89 ± 0.16 h | 5.03 ± 0.45 h | 5.01 ± 0.34 h | 3.53 ± 0.54 h | 8.28 ± 0.38 h | 5.99 ± 0.58 h | 12.3 ± 0.26 h | – | 5.64 ± 0.061 h | – | 5.04 ± 0.15 h
